Measured values published in patent publication US20240336672A1.

Experiments:
Assay in all cases: flow cytometry (Mock 2.5)
[1] = biological target: SARS-CoV-2 δ variant spike protein, cell-expressed (SARS-CoV-2)
α (SARS-CoV-2) = biological target: α (SARS-CoV-2)
β (SARS-CoV-2) = biological target: β (SARS-CoV-2)
γ (SARS-CoV-2) = biological target: γ (SARS-CoV-2)
ε (SARS-CoV-2) = biological target: ε (SARS-CoV-2)
ι (SARS-CoV-2) = biological target: ι (SARS-CoV-2)
κ (SARS-CoV-2) = biological target: κ (SARS-CoV-2)

Sequence of Adintrevimab (antibody) (VH): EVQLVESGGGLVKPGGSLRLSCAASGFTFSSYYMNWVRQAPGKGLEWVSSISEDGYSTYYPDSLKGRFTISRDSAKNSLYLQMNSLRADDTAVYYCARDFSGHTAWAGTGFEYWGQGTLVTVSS
Sequence of Adintrevimab (antibody) (VL): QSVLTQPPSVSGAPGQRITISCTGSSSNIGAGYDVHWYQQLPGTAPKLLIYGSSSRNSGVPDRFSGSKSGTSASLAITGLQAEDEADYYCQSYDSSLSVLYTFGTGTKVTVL

Row | Substance | log10 ΔgMFI [1] | log10 ΔgMFI (α (SARS-CoV-2)) | log10 ΔgMFI (β (SARS-CoV-2)) | log10 ΔgMFI (γ (SARS-CoV-2)) | log10 ΔgMFI (ε (SARS-CoV-2)) | log10 ΔgMFI (ι (SARS-CoV-2)) | log10 ΔgMFI (κ (SARS-CoV-2))
1 | Adintrevimab (antibody) | 4.5 | 4.3 | 3.9 | 4.5 | 4.5 | 4.9 | 4.8
2 | TIX (antibody) | 4.7 | 4.5 | 3.9 | 4.6 | 4.7 | 4.9 | 4.9
3 | BAM (antibody) | 2.5 | 4.4 | 2.5 | 2.5 | – | 2.5 | 3.5
4 | Cilgavimab (antibody) | – | 4.4 | – | 4.7 | – | 4.9 | 4.7
5 | CAS (antibody) | 4.6 | 4.4 | 3.1 | – | 4.6 | 4.9 | 4.9
6 | ETE (antibody) | 4.5 | 4.2 | 2.5 | 2.5 | 4.5 | 4.8 | 4.7
